From publication doi:10.1101/2022.09.01.506182 (bioRxiv, 2022) come the findings set out here.

In experiment [1] the target is T1, endogenous LGR5 of human cancer cell lines (human (endogenous in NALM6, REH, 697, LoVo)) (UniProt O75473).
T1 sequence: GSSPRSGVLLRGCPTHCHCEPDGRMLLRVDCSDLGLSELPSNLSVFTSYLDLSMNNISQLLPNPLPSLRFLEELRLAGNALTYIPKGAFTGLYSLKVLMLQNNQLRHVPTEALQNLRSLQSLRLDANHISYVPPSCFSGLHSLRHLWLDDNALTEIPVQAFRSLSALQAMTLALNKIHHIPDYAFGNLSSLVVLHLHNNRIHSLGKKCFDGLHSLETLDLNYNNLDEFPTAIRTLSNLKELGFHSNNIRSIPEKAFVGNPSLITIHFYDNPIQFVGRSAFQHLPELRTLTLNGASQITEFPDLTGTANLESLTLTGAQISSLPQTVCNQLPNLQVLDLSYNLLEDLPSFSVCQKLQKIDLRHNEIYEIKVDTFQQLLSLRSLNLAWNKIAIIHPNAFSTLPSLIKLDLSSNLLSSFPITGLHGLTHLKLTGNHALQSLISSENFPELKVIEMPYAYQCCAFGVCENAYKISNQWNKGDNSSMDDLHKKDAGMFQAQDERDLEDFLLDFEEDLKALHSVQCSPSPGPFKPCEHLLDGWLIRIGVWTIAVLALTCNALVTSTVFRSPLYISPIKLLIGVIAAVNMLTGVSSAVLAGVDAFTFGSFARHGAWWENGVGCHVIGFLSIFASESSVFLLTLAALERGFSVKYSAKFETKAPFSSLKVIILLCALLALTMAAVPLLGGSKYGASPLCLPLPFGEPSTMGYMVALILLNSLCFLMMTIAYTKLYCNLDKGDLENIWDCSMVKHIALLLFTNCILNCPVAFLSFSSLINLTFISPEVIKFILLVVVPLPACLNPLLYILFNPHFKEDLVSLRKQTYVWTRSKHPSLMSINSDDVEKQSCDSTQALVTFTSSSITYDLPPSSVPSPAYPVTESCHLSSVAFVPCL

The target of experiment [2] is T1, endogenous LGR5 of human cancer cell lines (human (endogenous in NALM6, REH, 697, LoVo)). The source holds these as a separate data set.
The target of experiment [3] is T2, RAD-displayed Fragment 1A of human LGR5 (Homo sapiens, UniProt O75473).
T2 chain: GSSPRSGVLLRGCPT
The experiment can be described thus: BLI.

In experiment [4] the target is T3, endogenous LGR5 of human cancer cell lines (Homo sapiens, UniProt O75473). The experiment in a line: western blot.
Experiment [5] addresses T2, RAD-displayed Fragment 1A of human LGR5. The experiment can be described thus: western blot.
Experiment [6] concerns the target human LGR4 transgene with N-terminal HA tag, V2 receptor tail and eGFP (Homo sapiens, UniProt Q9BXB1). The experiment can be described thus: flow cytometry on cells.
Experiment [7] deals with murine LGR5 transgene with N-terminal HA tag, V2 receptor tail and eGFP (Mus musculus, UniProt Q9Z1P4). The experiment in a line: flow cytometry on cells.
For experiment [8], the target named is T3, endogenous LGR5 of human cancer cell …. The experiment in a line: flow cytometry on cells.
The target in experiment [9] is T2, RAD-displayed Fragment 1A of human LGR5. The experiment in a line: immunostaining of cells or tissue.

Sequence of murine LGR5 transgene with N-terminal HA tag, V2 receptor tail and eGFP (Q9Z1P4 22-907): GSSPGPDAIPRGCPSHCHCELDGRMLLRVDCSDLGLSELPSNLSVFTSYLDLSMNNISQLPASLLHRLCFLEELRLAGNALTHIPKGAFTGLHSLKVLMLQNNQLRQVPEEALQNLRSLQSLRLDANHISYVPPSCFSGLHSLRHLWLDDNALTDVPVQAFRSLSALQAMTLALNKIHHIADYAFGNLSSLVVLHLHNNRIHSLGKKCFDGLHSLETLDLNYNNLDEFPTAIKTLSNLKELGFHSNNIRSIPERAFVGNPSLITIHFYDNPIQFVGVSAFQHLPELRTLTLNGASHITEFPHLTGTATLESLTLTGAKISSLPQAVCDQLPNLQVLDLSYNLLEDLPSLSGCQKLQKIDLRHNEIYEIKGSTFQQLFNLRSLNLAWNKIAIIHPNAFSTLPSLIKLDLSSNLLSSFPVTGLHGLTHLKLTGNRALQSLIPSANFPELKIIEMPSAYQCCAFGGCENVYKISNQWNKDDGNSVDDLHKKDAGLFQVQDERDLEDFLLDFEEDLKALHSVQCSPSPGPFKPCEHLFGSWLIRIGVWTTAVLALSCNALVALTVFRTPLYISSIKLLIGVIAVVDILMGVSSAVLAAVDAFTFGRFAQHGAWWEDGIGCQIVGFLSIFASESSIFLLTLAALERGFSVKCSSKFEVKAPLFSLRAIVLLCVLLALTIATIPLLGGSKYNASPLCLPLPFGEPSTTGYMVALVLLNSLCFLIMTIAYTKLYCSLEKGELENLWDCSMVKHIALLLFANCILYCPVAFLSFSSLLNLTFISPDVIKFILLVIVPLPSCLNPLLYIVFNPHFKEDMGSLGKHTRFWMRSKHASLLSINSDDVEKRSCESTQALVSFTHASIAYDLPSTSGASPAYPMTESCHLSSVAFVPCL
Sequence of human LGR4 transgene with N-terminal HA tag, V2 receptor tail and eGFP (Q9BXB1 25-951): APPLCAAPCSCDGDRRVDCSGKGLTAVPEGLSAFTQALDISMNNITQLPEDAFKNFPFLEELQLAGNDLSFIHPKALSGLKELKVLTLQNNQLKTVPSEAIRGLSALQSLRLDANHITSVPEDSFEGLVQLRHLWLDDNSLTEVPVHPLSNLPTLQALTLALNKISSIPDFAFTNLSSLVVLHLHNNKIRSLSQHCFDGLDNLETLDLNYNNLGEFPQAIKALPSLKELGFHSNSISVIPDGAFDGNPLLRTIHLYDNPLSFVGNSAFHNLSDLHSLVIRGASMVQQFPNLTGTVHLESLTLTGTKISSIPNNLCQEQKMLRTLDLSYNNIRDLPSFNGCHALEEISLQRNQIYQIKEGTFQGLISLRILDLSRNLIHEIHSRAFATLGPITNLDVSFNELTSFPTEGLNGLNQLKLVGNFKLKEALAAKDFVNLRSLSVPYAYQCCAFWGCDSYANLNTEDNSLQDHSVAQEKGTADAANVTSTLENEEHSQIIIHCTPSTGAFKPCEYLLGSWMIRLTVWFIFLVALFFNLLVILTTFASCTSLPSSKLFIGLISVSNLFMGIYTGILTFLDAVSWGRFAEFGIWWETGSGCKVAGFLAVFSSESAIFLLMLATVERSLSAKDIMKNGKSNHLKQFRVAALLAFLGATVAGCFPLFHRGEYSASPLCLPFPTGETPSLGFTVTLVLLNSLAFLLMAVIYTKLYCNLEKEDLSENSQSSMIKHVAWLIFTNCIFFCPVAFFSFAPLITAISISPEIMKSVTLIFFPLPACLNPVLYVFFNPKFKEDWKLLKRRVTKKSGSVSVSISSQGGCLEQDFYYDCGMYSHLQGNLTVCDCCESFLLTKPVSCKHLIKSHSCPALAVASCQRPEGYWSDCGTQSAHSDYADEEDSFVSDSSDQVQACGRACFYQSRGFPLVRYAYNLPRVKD

B1: α-LGR5-ADC (murine clone 2 conjugated to MMAE, sulphatase cleavable linker) (antibody, V domains shown)
VH: QVQLQQPGAELVKPGASVKLSCKASGYTFTNYWMQWVKQRPGQGLEWIGEIDPSDSYTNYNQKFKGKATLTVDTSSSTAYMQLSSLTSEDSAVYYCARSLSGYVDYWGQGTTLTVSS
VL: DIQMTQTTSSLSASLGDRVTISCRASQDISNRLNWYQQKPDGTVKLLISYRSRLHSGVPSRFSGSGSGTDYSLTISNLEQEDIATYFCQQGNSLPPTFGGGTKLEVR
In [1], B1 showed a killing of NALM6 cells after three days of treatment (CellTiter-Glo), EC50 of 4 nM and a killing of REH cells after three days of treatment (CellTiter-Glo), EC50 of 10 nM. In [2], the killing of LoVo cells after three days of treatment (CellTiter-Glo), EC50 was found to be 9 nM. Further, the binding result in experiment [3] is given as “binds”.

B2: α-LGR5 hybridoma clone 2 (antibody, V domains shown)
VH: QVQLQQPGAELVKPGASVKLSCKASGYTFTNYWMQWVKQRPGQGLEWIGEIDPSDSYTNYNQKFKGKATLTVDTSSSTAYMQLSSLTSEDSAVYYCARSLSGYVDYWGQGTTLTVSS
VL: DIQMTQTTSSLSASLGDRVTISCRASQDISNRLNWYQQKPDGTVKLLISYRSRLHSGVPSRFSGSGSGTDYSLTISNLEQEDIATYFCQQGNSLPPTFGGGTKLEVR
On to B2, for which the binding result in [4] and in experiment [5] was “binds” each time.

B3: α-LGR5 hybridoma clone 3 (antibody, V domains shown)
VH: QVQLQQPGAELVKPGASVKLSCKASGYTFTSYWMQWVKQRPGQGLEWIGEIDPSDSYSNYNQKFKGKATLTVDTSSSTAYMQLSSLTSEDSAVYYCARSLSGYVDYWGQGTTLTVSS
VL: DIQMTQTTSSLSASLGDRVTISCRASQDISNRLNWYQQKPDGTVKLLISYRSRLQSGVPSRFSGSGSGTDYSLTISNLEEEDIATYFCQQGNTLPPTFGGGTKLEVR
In the case of B3, the binding result in experiment [5] is on record as “binds”.

B4: α-LGR5 hybridoma clone 1 (antibody, V domains shown)
VH: QVQLQQPGAELVKPGASVKLSCKASGYTFTSYWMQWVKQRPGQGLEWIGEIDPSDYYTNYNQKFKGKATLTVDTSSSTAYMQLSSLTSEDSAVYYCARSLSGYVDYWGQGTTLTVSS
VL: DIQMTQSTSSLSASLGDRVTINCRASQDIRNRLNWYQQKPDGTVKLLISYRSRLQSGVPSRFSGSGSGTEYSLTISNLEQEDIATYFCQQGNTLPPTFGGGTKLEVR
In the case of B4, in experiment [5], the binding result was “binds”.

B5: α-LGR5 hybridoma clone 4 (antibody, V domains shown)
VH: QVQLQQPGAELVKPGASVKLSCKASGYTFTDYWMQWVKQRPGQGLEWIGEIDPSDSYTNYNQKFQGKATLTVDTSSSTAYIQLSSLTSDDSAVYYCARSLSGSVDYWGQGTTLTVSS
VL: DIQMTQTTSSLSASLGDRVTISCRASQDISNRLNWYQQKPDGTVKLLISYRSRLQSGVPSRFSGSGSGTDYSLTITNLEQEDIATYFCQQGNTLPPTFGGGTKLEVR
For the molecule B5, the binding result in experiment [5] was “binds”.

B6: murine α-LGR5 coupled to Dylight650 fluorophore (antibody, V domains shown)
VH: QVQLQQPGAELVKPGASVKLSCKASGYTFTNYWMQWVKQRPGQGLEWIGEIDPSDSYTNYNQKFKGKATLTVDTSSSTAYMQLSSLTSEDSAVYYCARSLSGYVDYWGQGTTLTVSS
VL: DIQMTQTTSSLSASLGDRVTISCRASQDISNRLNWYQQKPDGTVKLLISYRSRLHSGVPSRFSGSGSGTDYSLTISNLEQEDIATYFCQQGNSLPPTFGGGTKLEVR
B6: the binding result in [6] is listed as “no binding”; in experiment [7], “no binding”; in [8], “binds”; in experiment [9], “binds”.
